Source: PMC6519459 (Science (New York, N.Y.), 2018)

Molecular target: Rpn11 (deubiquitinase of the lid, 3XFLAG-tagged, in the 26S holoenzyme) (S. cerevisiae, UniProt P43588 1-306)
Assay: cryo-EM structure

binding result: binds
B1: ubiquitin (S. cerevisiae), the proximal, substrate-attached moiety of the polyubiquitin chain (natural protein)
chain: not shown
modifications: C terminus joined to the substrate lysine by an isopeptide bond; part of a K63-linked chain
